Results published in patent US20170107294A1, “ANTI-CD14 ANTIBODIES AND USES THEREOF” (Nordlandssykehuset HF, priority 2014, published 2017).

T1: porcine CD14 (Sus scrofa, UniProt F6PST4)
T1 sequence (F6PST4 21-373): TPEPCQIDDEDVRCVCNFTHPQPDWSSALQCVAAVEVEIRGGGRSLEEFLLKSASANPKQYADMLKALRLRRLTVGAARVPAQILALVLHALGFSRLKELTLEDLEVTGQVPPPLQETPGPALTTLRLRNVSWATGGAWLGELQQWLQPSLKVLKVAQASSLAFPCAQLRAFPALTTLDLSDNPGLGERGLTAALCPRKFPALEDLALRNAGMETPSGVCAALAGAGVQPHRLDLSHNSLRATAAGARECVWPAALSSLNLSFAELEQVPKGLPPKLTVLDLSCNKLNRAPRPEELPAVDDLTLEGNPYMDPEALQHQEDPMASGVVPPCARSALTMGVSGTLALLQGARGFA


What was measured:
porcine CD14 [1] = molecular target: T1, porcine CD14; experiment: Leukocyte CD14 expression before and after rMil2 bolus in a piglet, flow cytometry; format: in vivo, Norwegian domestic piglets (Sus scrofa domesticus); design: endogenous in cells; conditions: after bolus dose of 5 mg/kg
Description: In vivo application of anti-porcine CD14 Abs Norwegian domestic piglets (Sus scrofa domesticus, outbred stock) with a weight of 2.2 kg were isolated at the day of intervention. Anesthesia was induced with 5% sevoflurane in a mixture of air and oxygen until sleep. After establishment of an i.v. line, the piglets received fentanyl (15-20 mg/kg) were tracheotomized in the supine position, and a microcuffed endotracheal tube from Kimberly-Clark (Roswell, GA) with inner diameter of 4 mm was inserted. Maintenance anesthesia was provided with an infusion of fentanyl (50 mg/kg/h, and isoflurane 1-2% in oxygen-enriched air administered from a Leon plus ventilator from Heinen and Loevenstein (Bad Ems, Germany). An artery line was inserted in the right or left carotid artery for blood sampling during the experiments and for continuous measurement of mean artery pressure. The piglets were monitored with electrocardiography and pulse oximetry. Ventilator settings were adjusted to maintain 7.40 pH and oxygen saturation above 96%. Hemodynamic parameters were collected using ICUpilot software, CMA Microdialysis (Stockholm, Sweden) every 30 s. To compensate for hydration needs, the animals received a background infusion of isotonic sodium glucose solution, Salidex (Braun Medical A/S, Vestskogen, Norway) at 10 ml/kg/h. […]

porcine whole blood [2] = experiment: Adverse (IgG-Fc mediated) effects in nonactivated porcine whole blood; format: cell-based; conditions: absence of inflammatory stimuli; for spontaneous IL-8 release: 50 mg/ml; for platelet counts / platelet aggregation: up to 71.4 mg/ml
Description: (§1) The whole blood model has been described in detail previously (36). Fresh human venous or porcine arterial blood was drawn directly into tubes containing the anticoagulant lepirudin (Pharmion) at a final concentration of 50 mg/ml. In 1.8-ml Cryo Tube vials (Nunc, Roskilde, Denmark), the blood was preincubated with up to 20 mg/ml anti-human CD14 (r18D11 or 18D11), or 50 mg/ml anti-porcine CD14 (rMil2 or Mil2) at 37° C. for 10 min prior to an additional 2-h incubation in the presence of 100 ng/ml ultrapure LPS from Escherichia coli 0111:B4 (InvivoGen, San Diego, Calif.) for human blood or 1 3 105/ml heat-inactivated E. coli (strain LE392, ATCC33572) for porcine blood. As negative controls, PBS with MgCl2 and CaCl2 (Sigma-Aldrich) and isotype controls were used. Adverse effects were tested using nonactivated whole blood samples. After the addition of 10 mM (human) or 20 mM (porcine) EDTA, plasma was gained by 15 min centrifugation at 3220 3 g and 4° C. Levels of TNF, IL-6, and IL-1b in human plasma were determined using Bioplex technology (Bio-Rad Laboratories AB). Levels of TNF, IL-1b, and IL-8 in porcine plasma were determined using ELISA (Quantikine, R&D Systems, Minneapolis, Minn.). Platelet count was quantified by impedance using a CELL-DYN Sapphire hematology analyzer (Abbott Laboratories, Abbott Park, Ill.).

porcine CD14 [3] = molecular target: T1, porcine CD14; experiment: CD14 binding in flow cytometry, porcine whole blood (competition with FITC-conjugated Mil2); design: human monocyte and porcine granulocyte populations were selected based on the forward scatter-side scatter dot plot; endogenous in cells; host or cells: granulocytes in fresh porcine whole blood (EDTA); binding sites blocked (competition with FITC-conjugated Mil2 in binding to CD14) / direct binding to porcine granulocytes: dose or concentration left out as unconfirmed; conditions: for binding sites blocked (competition with FITC-conjugated Mil2 in binding to CD14): Ab, granulocytes in porcine whole blood
Description: Fresh human or porcine whole blood was drawn into tubes containing the anticoagulants lepirudin (Refludan; Pharmion, Copenhagen, Denmark) or EDTA, respectively. Blood samples were preincubated for 10 min with Ab, #20 mg/ml anti-human CD14 Abs r18D11, 18D11 F(ab)92 (batch 2068, lot 1383), or isotype controls raNIP and mIgG1 F(ab)92 (lot 1501), or […] anti-porcine CD14 Abs rMil2, Mil2 (lot 1106), or the isotype controls 4770 RECOMBINANT ANTI-CD14 Abs Downloaded from University of Oslo, Library of Medicine and Health Science on Jan. 24, 2014 for IgG2/4 and mIgG2b, eculizumab (Soliris) and mIgG2b (lot 1631), respectively. Endotoxin-free Dulbecco phosphate buffered saline, PBS (Sigma-Aldrich), was used for diluting the Abs. Subsequently, blood samples were incubated for another 15 min in the presence of detection Ab, 10 mg/ml 18D11 (batch 719, lot 3110) or 150 mg/ml FITC-conjugated Mil2 (batch 1107). Their binding was detected either by using a secondary PEconjugated anti-mouse IgG or through direct FITC fluorescence. Erythrocytes were lysed using FACS Lysing solution (BD Biosciences, Franklin Lakes, N.J.; human blood) or a solution of 0.16 M ammonium chloride, 10 mM sodium bicarbonate, 0.12 mM EDTA (Tritiplex III) and 0.04% (v/v) paraformaldehyde (porcine blood). In subsequent flow cytometry analyses, human monocyte and porcine granulocyte populations were selected based on the forward scatter-side scatter dot plot, and CD14 binding was recorded as mean or median fluorescence intensity, respectively. In contrast to humans, porcine CD14 is constitutively expressed on mature granulocytes (32, 33). Fluorescence intensities in the presence of the fluorescently labeled Abs only were set to 100%. Flow cytometry analyses on human samples were performed using an LSRII and FACSDiva software version 5.0.3; porcine samples were analyzed on a FACSCalibur using Cell Quest Pro version 5.2.1 for data acquisition (all from BD Biosciences).

porcine whole blood [4] = experiment: rMil2 combined with C5 inhibitor OmCI: cytokine production in porcine whole blood ex vivo; format: cell-based; conditions: E. coli-incubated porcine whole blood
Description: as §1
Whole blood was incubated with 1 3 106 E. coli per milliliter for 2 h at 37° C. in the absence or presence of inhibitors and controls. TNF, IL-1b, and IL-8 blood was analyzed as described above.

porcine whole blood [5] = experiment: Whole blood ex vivo model of inflammation, E. coli-induced cytokine release in porcine blood; format: cell-based; conditions: heat-inactivated E. coli
Description: as §1

[6] = system: E. coli-induced cytokine response; experiment: In vivo E. coli sepsis regimen in piglets, cytokine response; design: species or system Norwegian domestic piglets (Sus scrofa domesticus); conditions: bolus 5 mg/kg before i.v. E. coli; vs saline control piglet
Description: (§2) In vivo application of anti-porcine CD14 Abs Norwegian domestic piglets (Sus scrofa domesticus, outbred stock) with a weight of 2.2 kg were isolated at the day of intervention. Anesthesia was induced with 5% sevoflurane in a mixture of air and oxygen until sleep. After establishment of an i.v. line, the piglets received fentanyl (15-20 mg/kg) were tracheotomized in the supine position, and a microcuffed endotracheal tube from Kimberly-Clark (Roswell, GA) with inner diameter of 4 mm was inserted. Maintenance anesthesia was provided with an infusion of fentanyl (50 mg/kg/h, and isoflurane 1-2% in oxygen-enriched air administered from a Leon plus ventilator from Heinen and Loevenstein (Bad Ems, Germany). An artery line was inserted in the right or left carotid artery for blood sampling during the experiments and for continuous measurement of mean artery pressure. The piglets were monitored with electrocardiography and pulse oximetry. Ventilator settings were adjusted to maintain 7.40 pH and oxygen saturation above 96%. Hemodynamic parameters were collected using ICUpilot software, CMA Microdialysis (Stockholm, Sweden) every 30 s. To compensate for hydration needs, the animals received a background infusion of isotonic sodium glucose solution, Salidex (Braun Medical A/S, Vestskogen, Norway) at 10 ml/kg/h. To compare the effect of the Mil2 and the rMil2 on healthy piglets, increasing amounts of a stock solution of 1 mg/ml rMil2 or Mil2 (batch 1106) were injected i.v. into two piglets at indicated times to a maximum dose of 5.36 mg/kg, and arterial blood samples were collected, in tubes containing the anticoagulants EDTA or citrate. To investigate the biological effect of rMIL2 on the inflammatory response, two piglets underwent the E. coli sepsis regimen as described previously (17). One control piglet was gives saline, and one piglet was given a bolus dose of 5 mg/kg rMil2 before infusion of the bacteria.

[7] = design: species or system Norwegian domestic piglets (Sus scrofa domesticus); conditions: in vivo, iv; for heart rate (effect in words): 0.32 mg/kg
Description: as §2

E. coli = conditions: whole pig blood; cited from earlier work

Molecule | reduction in leukocyte CD14 expression (saturation of CD14) (porcine CD14 [1]) [%] | spontaneous IL-8 release (porcine whole blood [2]) | platelet counts / platelet aggregation (porcine whole blood [2]) | binding sites blocked (competition with FITC-conjugated Mil2 in binding to CD14) (porcine CD14 [3]) [%] | direct binding to porcine granulocytes (porcine CD14 [3]; not shown) | displacement of original clone Mil2 from CD14+ granulocytes (porcine CD14 [3]; porcine whole blood) | IL-1b release (effect in words) (porcine whole blood [4]) | IL-8 release (effect in words) (porcine whole blood [4]) | TNF release (effect in words) (porcine whole blood [4]) | block of IL-1b release compared with Mil2 (porcine whole blood [5]) | inhibition of TNF release compared with Mil2 (porcine whole blood [5]) | IL-1b reduction (area under the curve) [6] [%] | IL-6 reduction (area under the curve) [6] [%] | IL-8 reduction (area under the curve) [6] [%] | TNF reduction (area under the curve) [6] [%] | heart rate (effect in words) [7] | maximum heart rate [7] [beats/min] | E. coli survival (E. coli)
rMil2: recombinant anti-porcine CD14 mouse/human chimeric IgG2/4 Ab; VL SEQ ID NO:3, VH SEQ ID NO:4 (antibody, V domains shown, human IgG2/4 constant regions) VH: MGWSCIILFLVATATGVHSQVRLQQPGAELVRPGASVKLSCKASGYTFTTYWMNWVKQRPEDGLEWIGRIDPYDSETHYNQNFKDKAILTVDKSSSTAYMQLSSLTYEDSAVYYCTRKEGRQWGAYFDYWGQGTTLTVSSA VL: MGWSCIILFLVATATGVHSDIVMTQSQKFMSTSVGDRVSVTCKASQYVGTNVAWYQQKPGQSPKALIQSASYRCSGVPDRFTGSGSGTDFTLTISNVQSEDLADYFCQQYNTYVTFGGGTKLELKR | 94 | Neither IL-8 secretion nor platelet drop nor aggregation was observed | Neither IL-8 secretion nor platelet drop nor aggregation was observed | ~50 | saturated | effectively bound to and displaced the original clone | significantly reduced the production | seemed to be substantial, but did not reach statistical significance | significantly reduced | as effective as Mil2 | slightly less inhibitory | 89 | 88 | 100 | 71 | but not rMil2, caused an increase in heart rate |  | 
Mil2: mouse anti-porcine CD14 IgG2b clone Mil2 (Serotec), original murine clone (antibody, V domains shown) VH: QVRLQQPGAELVRPGASVKLSCKASGYTFTTYWMNWVKQRPEDGLEWIGRIDPYDSETHYNQNFKDKAILTVDKSSSTAYMQLSSLTYEDSAVYYCTRKEGRQWGAYFDYWGQGTTLTVSSA VL: DIVMTQSQKFMSTSVGDRVSVTCKASQYVGTNVAWYQQKPGQSPKALIQSASYRCSGVPDRFTGSGSGTDFTLTISNVQSEDLADYFCQQYNTYVTFGGGTKLELKR |  | strong spontaneous IL-8 release | dose-dependent drop in platelet counts | ~50 |  |  | not significantly reduced | markedly enhanced the release | significantly reduced |  |  |  |  |  |  | caused an increase in heart rate | ~300 | does not affect E. coli survival
